Data taken from US9869668B2, “PDGF as a biomarker for predicting resistance or effect of c-Met targeting drugs” (SAMSUNG ELECTRONICS CO., LTD., priority 2014, dated 2018).

B1: SAIT301: anti-c-Met antibody: huAbF46-H4-A1 heavy chain variable region, human IgG2 hinge and constant region, kappa light chain (antibody)
heavy: EVQLVESGGGLVQPGGSLRLSCAASGFTFTDYYMSWVRQAPGKGLEWLGFIRNKANGYTTEYSASVKGRFTISRDNSKNTLYLQMNSLRAEDTAVYYCARDNWFAYWGQGTLVTVSSASTKGPSVFPLAPCSRSTSESTAALGCLVKDYFPEPVTVSWNSGALTSGVHTFPAVLQSSGLYSLSSVVTVPSSNFGTQTYTCNVDHKPSNTKVDKTVERKCCVECPPCPAPPVAGPSVFLFPPKPKDTLMISRTPEVTCVVVDVSHEDPEVQFNWYVDGVEVHNAKTKPREEQFNSTFRVVSVLTVVHQDWLNGKEYKCKVSNKGLPAPIEKTISKTKGQPREPQVYTLPPSREEMTKNQVSLTCLVKGFYPSDIAVEWESNGQPENNYKTTPPMLDSDGSFFLYSKLTVDKSRWQQGNVFSCSVMHEALHNHYTQKSLSLSPGK
light: DIQMTQSPSSLSASVGDRVTITCKSSQSLLASGNQNNYLAWYQQKPGKAPKMLIIWASTRVSGVPSRFSGSGSGTDFTLTISSLQPEDFATYYCQQSYSRPYTFGQGTKVEIKRTVAAPSVFIFPPSDEQLKSGTASVVCLLNNFYPREAKVQWKVDNALQSGNSQESVTEQDSKDSTYSLSSTLTLSKADYEKHKVYACEVTHQGLSSPVTKSFNRGEC

How the values were obtained:
Assay type in all cases: cell-based
[1] = test system: EBC1-SR#6 cell line (compared with EBC1 parental cell line); assay: EZ-Cytox cell viability assay, 72 hours after treatment; conditions: EBC1-SR#6 vs EBC1 parental cell line, sole treatment, FIG. 2/FIG. 3
Protocol: To examine whether the quantitative increase of PDGF protein contributes to obtaining resistance in anti-c-Met antibody resistance acquired cell line, EBC1 and EBC1-SR#6 cell lines were treated with PDGFR (PDGF Receptor) TKI (tyrosine kinase inhibitor), then the changes of cell growth inhibition were measured using EZ-Cytox Cell viability assay kit (DaeiLab Service, Seoul, Korea).
For this, each of EBC1 cells and EBC1-SR#6 cells were seeded on 96-well plate at the amount of 5000 (5×10^3) cells. […] Seventy two hours after the treatment, the number of the cells was measured by EZ-Cytox Cell viability assay kit.

EBC1-SR#6 cell lines = assay: CellTiter Glo assay confirming acquired resistance to SAIT301; conditions: resistance-acquired clones; 0-2 ug/ml; 72 hours after the antibody treatment
Protocol: EBC1 (JCRB 0820) cell lines was treated with SAIT301 for at least 2 months, with increasing the concentration of treated antibody. The concentration of SAIT301 was increased from 1 ug/ml to 10 ug/ml until a resistance is induced. To confirm the acquisition of a resistance to SAIT301, the prepared clones were treated with SAIT301 at the concentration of 0 ug/ml, 0.016 ug/ml, 0.08 ug/ml, 0.4 ug/ml, or 2 ug/ml, and 72 hours after the antibody treatment, the number of the living cells was counted by CellTiter Glo assay (Promega, G7573).
The obtained SAIT301 resistance acquired cell lines were named EBC1-SR#6.

EBC1 parent cells = assay: Responsiveness of parent cells to SAIT301 before inducing resistance
Protocol: To examine the quantitative change of PDGF when a resistance to an anti-c-Met antibody is induced, SAIT301 resistance acquired EBC1-SR#6 cell lines were prepared by repeatedly treating EBC1 (JCRB 0820) cells with SAIT301. EBC1 parent cells were all responsive to SAIT301, before inducing SAIT301 resistance. The SAIT301 resistance acquired EBC1-SR#6 cell lines were prepared as follows: […]

Molecule | chemosensitivity of EBC1-SR#6 cell line compared with EBC1 [1] | effect of antibody on number of living cells (EBC1-SR#6 cell lines) | responsiveness of cells to antibody (EBC1 parent cells)
CCN(CC)CCCCNc1ncc2cc(-c3cc(OC)cc(OC)c3)c(NC(=O)NC(C)(C)C)nc2n1 [PD173074] | not changed markedly |  | 
B1 |  | no effect | responsive
